According to the supplement of paper PMC9112550, “Optimization of the antimicrobial peptide Bac7 by deep mutational scanning” (BMC Biology, 2022):

tested on: Escherichia coli TOP10; experiment: shrunken log2 fold change of peptide-encoding DNA abundance (4.5 h post-induction vs induction); higher = less antimicrobial activity (less host growth inhibition); conditions: time post-induction: 4.5 h; library: site-saturation at positions 5, 18, 19, 20
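Further: peptides expressed intracellularly from a pBAD plasmid library in pooled LB shake-flask culture, induced with 0.3% L-arabinose, DNA abundance read by NGS, three biological replicates, DESeq2 with apeglm shrinkage.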

Sequence	shrunken log2 fold change
RRIRYRPPRLPRPRPRPICVPRP	-0.293
RRIRHRPPRLPRPRPRPYVQPRP	-1.29
RRIRRRPPRLPRPRPRPYFGPRP	-0.163
RRIRLRPPRLPRPRPRPEKEPRP	0.263
RRIRSRPPRLPRPRPRPRSTPRP	0.0523
RRIRDRPPRLPRPRPRPNDIPRP	-0.211
RRIRKRPPRLPRPRPRPWDAPRP	0.496
RRIRMRPPRLPRPRPRPWLSPRP	0.0302
RRIRLRPPRLPRPRPRPTEMPRP	0.037
RRIRCRPPRLPRPRPRPVKPPRP	0.477
RRIRQRPPRLPRPRPRPCWCPRP	-0.0854
RRIRKRPPRLPRPRPRPAAMPRP	0.707
RRIRNRPPRLPRPRPRPWHKPRP	-0.0524
RRIRARPPRLPRPRPRPNMLPRP	-0.424
RRIRTRPPRLPRPRPRPDWGPRP	0.194
RRIRTRPPRLPRPRPRPWLLPRP	-0.186
RRIRERPPRLPRPRPRPNNTPRP	-0.769
RRIRNRPPRLPRPRPRPRVKPRP	0.139
RRIRRRPPRLPRPRPRPMSHPRP	0.142
RRIRRRPPRLPRPRPRPEGDPRP	0.956
RRIRMRPPRLPRPRPRPICKPRP	-0.0206
RRIRLRPPRLPRPRPRPWTQPRP	0.13
RRIRARPPRLPRPRPRPTFNPRP	0.0685
RRIRNRPPRLPRPRPRPMIYPRP	-0.265
RRIRPRPPRLPRPRPRPSVLPRP	0.0488

Sequence	shrunken log2 fold change
RRIRIRPPRLPRPRPRPFAMPRP	-0.98
RRIRQRPPRLPRPRPRPSLIPRP	-0.275
RRIRPRPPRLPRPRPRPGHQPRP	0.153
RRIRSRPPRLPRPRPRPCKSPRP	0.00889
RRIRARPPRLPRPRPRPDRGPRP	-0.283
RRIRKRPPRLPRPRPRPVNPPRP	-0.0659
RRIRCRPPRLPRPRPRPLYGPRP	-0.914
RRIRHRPPRLPRPRPRPMNHPRP	-0.738
RRIRFRPPRLPRPRPRPGSPPRP	0.206
RRIRIRPPRLPRPRPRPTRKPRP	-0.101
RRIRQRPPRLPRPRPRPCIIPRP	-0.0528
RRIRWRPPRLPRPRPRPFPSPRP	-0.1
RRIRWRPPRLPRPRPRPFHKPRP	-0.28
RRIRIRPPRLPRPRPRPGPHPRP	0.0135
RRIRCRPPRLPRPRPRPRPFPRP	0.176
RRIRPRPPRLPRPRPRPTIHPRP	-0.428
RRIRFRPPRLPRPRPRPWFAPRP	-0.582
RRIRFRPPRLPRPRPRPSCPPRP	-0.72
RRIRKRPPRLPRPRPRPDMPPRP	0.122
RRIRQRPPRLPRPRPRPSECPRP	-0.0674
RRIRQRPPRLPRPRPRPEIMPRP	0.103
RRIRHRPPRLPRPRPRPVPSPRP	0.0513
RRIRYRPPRLPRPRPRPQLCPRP	-0.0902
RRIRDRPPRLPRPRPRPSSHPRP	-0.124
RRIRCRPPRLPRPRPRPKEHPRP	-0.201

Sequence	shrunken log2 fold change
RRIRSRPPRLPRPRPRPHCIPRP	0.021
RRIRVRPPRLPRPRPRPAIWPRP	0.0627
RRIRARPPRLPRPRPRPVHAPRP	0.768
RRIRIRPPRLPRPRPRPWDTPRP	-0.231
RRIRCRPPRLPRPRPRPSIFPRP	-0.575
RRIRLRPPRLPRPRPRPYIKPRP	-0.882
RRIRNRPPRLPRPRPRPAQCPRP	-0.0739
RRIRGRPPRLPRPRPRPEIKPRP	1.24
RRIRMRPPRLPRPRPRPSWSPRP	0.154
RRIRFRPPRLPRPRPRPAYWPRP	0.21
RRIRSRPPRLPRPRPRPKKFPRP	-0.222
RRIRRRPPRLPRPRPRPKENPRP	0.325
RRIRRRPPRLPRPRPRPIFMPRP	0.294
RRIRYRPPRLPRPRPRPTVFPRP	-0.317
RRIRVRPPRLPRPRPRPLEAPRP	0.242
RRIRSRPPRLPRPRPRPFGMPRP	-0.25
RRIRMRPPRLPRPRPRPGTPPRP	1.02
RRIRRRPPRLPRPRPRPYPVPRP	0.0514
RRIRYRPPRLPRPRPRPDMCPRP	-0.0185
RRIRTRPPRLPRPRPRPEWKPRP	-0.076
RRIRPRPPRLPRPRPRPENCPRP	0.151
RRIRTRPPRLPRPRPRPQGRPRP	-0.0678
RRIRPRPPRLPRPRPRPHDWPRP	-0.0184
RRIRARPPRLPRPRPRPNCTPRP	0.172
RRIRLRPPRLPRPRPRPKKLPRP	0.111

Sequence	shrunken log2 fold change
RRIRIRPPRLPRPRPRPQVSPRP	-0.21
RRIRGRPPRLPRPRPRPMYIPRP	-0.396
RRIRTRPPRLPRPRPRPYPIPRP	0.00205
RRIRARPPRLPRPRPRPANEPRP	0.173
RRIRHRPPRLPRPRPRPISIPRP	0.0201
RRIRSRPPRLPRPRPRPDMCPRP	0.0552
RRIRKRPPRLPRPRPRPGACPRP	0.237
RRIRIRPPRLPRPRPRPYFMPRP	-1.21
RRIRERPPRLPRPRPRPWPIPRP	-0.679
RRIRIRPPRLPRPRPRPYQRPRP	-0.12
RRIRMRPPRLPRPRPRPNQCPRP	-0.198
RRIRHRPPRLPRPRPRPNRPPRP	-0.022
RRIRYRPPRLPRPRPRPVYSPRP	4.05
RRIRARPPRLPRPRPRPGNYPRP	0.208
RRIRYRPPRLPRPRPRPIKQPRP	-0.0386
RRIRCRPPRLPRPRPRPAMCPRP	-0.144
RRIRFRPPRLPRPRPRPGAMPRP	0.0505
RRIRNRPPRLPRPRPRPRGYPRP	-0.846
RRIRERPPRLPRPRPRPQNWPRP	-0.0518
RRIRNRPPRLPRPRPRPSEYPRP	-0.386
RRIRERPPRLPRPRPRPMLTPRP	0.151
RRIRGRPPRLPRPRPRPIQGPRP	-0.0132
RRIRWRPPRLPRPRPRPQWRPRP	-0.0345
RRIRKRPPRLPRPRPRPTWCPRP	0.263
RRIRFRPPRLPRPRPRPVAFPRP	-0.141

Sequence	shrunken log2 fold change
RRIRSRPPRLPRPRPRPTQIPRP	0.048
RRIRDRPPRLPRPRPRPCDQPRP	0.0112
RRIRHRPPRLPRPRPRPEFFPRP	0.0155
RRIRDRPPRLPRPRPRPHPMPRP	0.0468
RRIRPRPPRLPRPRPRPAQYPRP	0.0469
RRIRYRPPRLPRPRPRPPSCPRP	-0.00175
RRIRPRPPRLPRPRPRPQDMPRP	-0.39
RRIRVRPPRLPRPRPRPFVIPRP	-0.477
RRIRIRPPRLPRPRPRPMGLPRP	-0.0686
RRIRHRPPRLPRPRPRPKKYPRP	-0.806
RRIRKRPPRLPRPRPRPHNTPRP	-0.152
RRIRTRPPRLPRPRPRPMHDPRP	-0.00302
RRIRCRPPRLPRPRPRPRNRPRP	0.239
RRIRIRPPRLPRPRPRPCDEPRP	0.0357
RRIRIRPPRLPRPRPRPDFSPRP	-0.175
RRIRSRPPRLPRPRPRPSLTPRP	-0.138
RRIRWRPPRLPRPRPRPCRHPRP	0.0955
RRIRYRPPRLPRPRPRPDLVPRP	-0.0421
RRIRCRPPRLPRPRPRPRYKPRP	-0.141
RRIRTRPPRLPRPRPRPMEPPRP	0.045
RRIRVRPPRLPRPRPRPDATPRP	0.299
RRIRCRPPRLPRPRPRPITNPRP	-0.449
RRIRERPPRLPRPRPRPWSPPRP	-0.0132
RRIRSRPPRLPRPRPRPCEIPRP	-0.0377
RRIRLRPPRLPRPRPRPMQTPRP	0.0393
